Sequences and labels used below:
B1: UGX202 (antibody, human IgG1, kappa, V domains shown)
VH: QVQLVQSGAEVKKPGASVKVSCKASGYTFTNHYMHWVRQAPGQGLEWMGIINPISGSTENAQKFQGRVTMTRDTSTSTVYMELSSLRSEDTAVYYCARDIVDAFDFWGQGTMVTVSS
VL: AIQLTQSPSSLSASVGDRVTITCRASQGISSALVWYQQKPGKAPKLLIYDASSLESGVPSRFSGSGSGTDFTLTISSLQPEDFATYYCQQFYDYFTFGPGTKVDIKR
notes: also called HC:S59E, LC:N92Y; S59E/N92Y
B2: UGX206 (antibody, human IgG1, kappa, V domains shown)
VH: B1 VH
VL: B1 VL with Y92N, Y94E
notes: also called HC:S59E, LC:Y94E; S59E/Y94E
B3: UGX203 (antibody, human IgG1, kappa, V domains shown)
VH: B1 VH
VL: B1 VL with S52D, Y92N
notes: also called HC:S59E, LC:S52D; S59E/S52D
B4: UGX205 (antibody, human IgG1, kappa, V domains shown)
VH: B1 VH
VL: B1 VL with Y92N, Y94D
notes: also called HC:S59E, LC:Y94D; S59E/Y94D
B5: UGX204 (antibody, human IgG1, kappa, V domains shown)
VH: B1 VH
VL: B1 VL with S52E, Y92N
notes: also called HC:S59E, LC:S52E; S59E/S52E

The record followed here is patent publication US20260250371A1 (ULTRAGENYX PHARMACEUTICAL, published 2026).

Numbering of substitutions follows the chain as printed. Names and notes keep the numbering of the source. Values joined by “and” are separate entries in the source; they are usually repeats but may differ in a detail not shown here. Equal entries are not always repeated.

The first test addresses T1, recombinant human FGF23 (R179Q) (human, UniProt Q9GZV9 25-251).
T1 construct: also called rhFGF23(R179Q); hFGF23(R179Q)
T1 sequence (looked up): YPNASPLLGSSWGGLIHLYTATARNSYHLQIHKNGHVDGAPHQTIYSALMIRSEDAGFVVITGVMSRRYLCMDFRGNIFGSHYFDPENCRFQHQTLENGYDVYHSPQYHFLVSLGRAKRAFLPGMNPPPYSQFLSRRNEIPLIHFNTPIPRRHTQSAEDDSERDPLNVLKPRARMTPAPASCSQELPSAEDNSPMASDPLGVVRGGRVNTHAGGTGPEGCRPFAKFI
In words: SPR, antibody captured on hIgG chip, rhFGF23(R179Q) analyte. (In SPR one partner is held on a chip, and binding of the other changes the refractive index at the surface.)
The Kd is the equilibrium constant for the complex coming apart. By koff is commonly meant the rate constant with which the complex falls apart. What is called kon is the rate constant with which the complex forms. As for B1, the Kd amounted to 7.59 pM, the “Ratio (variant antibody KD/burosumab KD)” value turned out to be 3, the “SA (surface activity)” value came to 91.6% and the koff was 9.8e-05 s⁻¹. Further, the kon came out at 1.29e+07 M⁻¹ s⁻¹.
For B2 the same measures were 7.87 pM, 3, 108%, 4.92e-05 s⁻¹ and 6.25e+06 M⁻¹ s⁻¹.
B3: the Kd stood at 11.5 pM, the “Ratio (variant antibody KD/burosumab KD)” value is 2, the “SA (surface activity)” value was found to be 81.4% and the koff is 0.000145 s⁻¹. The on-rate constant (kon) is 1.26e+07 M⁻¹ s⁻¹.
For B4, the Kd is 4.07 pM, the “Ratio (variant antibody KD/burosumab KD)” value was found to be 5, the “SA (surface activity)” value amounted to 93.9% and the koff was 6.25e-05 s⁻¹. Besides, the kon stood at 1.53e+07 M⁻¹ s⁻¹.
Taken in the same sequence, the figures for B5 were 13.3 pM, 2, 90.4%, 0.000186 s⁻¹ and 1.4e+07 M⁻¹ s⁻¹.

Another test addresses T1, recombinant human FGF23 (R179Q). In words: SPR, antibody captured on hIgG chip, human FGF23 analyte.
For the molecule B1, the “KD ratio (variant antibody KD/burosumab KD)” value (“KD ratio” below) is 3 and the dissociation constant Kd amounted to 7.59 pM.
In the case of B2, the “KD ratio” value was 3 and the Kd came to 7.87 pM.
For the molecule B3, the “KD ratio” value was 2 and the Kd came to 11.5 pM.
In the case of B4, the “KD ratio” value was 5 and the Kd amounted to 4.07 pM.
Turning to B5, the “KD ratio” value turned out to be 2 and the Kd turned out to be 13.3 pM.

A further test deals with T2, cynomolgus monkey (Macaca fascicularis) FGF23 (R179Q) (cynomolgus monkey (Macaca fascicularis), UniProt Q9GZV9 25-251 (human entry), limits assumed).
T2 construct: also called cynoFGF23; cynoFGF23(R179Q)
T2 chain: T1 sequence (looked up) with D85N, Q92R, Q94W, Y108H, I149R, M195V, G219A, A224P
In words: SPR, antibody captured on hIgG chip, cynoFGF23(R179Q) analyte, single cycle kinetics. On the procedure:
Binding kinetics of 13 antibody variants shown in Table 19 were characterized against cynomolgus monkey (Macaca fascicularis) FGF23 (R179Q) (i.e., “cynoFGF23”) (SEQ ID NO: 372). Antibody variants were expressed at small scale (3 ml) and screened by SPR analysis at a single concentration (100 nM). Experimental setup of SPR analysis for CRC: SPR device—8K+; chip preparation—CM5 hIgG chip: channels—1-8; immobilization concentration—1.5 ug/ml; immobilization method—capture; flow rate—5 μl/min; contact time—60 s; running buffer—1×HBS-EP+pH 7.4; temperature—20° C.: flow rate—50 μl/min; association time—120 s; dissociation time—1800 s; antigen—cynoFGF23(R179Q): top concentration—0.1 μM, 9-pt 3-fold Single Cycle Kinetics.
Regarding B1, the “KD ratio” value was 3 and the Kd came out at 6.93 pM.
For B2 the same measures were 3 and 7.16 pM.
Taken in the same sequence, the figures for B3 were 1 and 22.9 pM.
Take B4: the “KD ratio” value was 9 and the Kd was 2.57 pM.
Regarding B5, the “KD ratio” value amounted to 1 and binding was put at a Kd of 16 pM.

The next test has as its target T1, recombinant human FGF23 (R179Q). In words: SPR, antibody captured on hIgG chip, rhFGF23(R179Q) analyte. The source holds these as a separate data set.
Consider B1, for which the Kd is 7.53 pM and 7.59 pM and 8.07 pM; the “Ratio (variant antibody KD/burosumab KD)” value was 3; the koff was 8.91e-05 s⁻¹ and 9.8e-05 s⁻¹ and 9.45e-05 s⁻¹; the kon is 1.2e+07 M⁻¹ s⁻¹ (2×) and 1.3e+07 M⁻¹ s⁻¹.
Consider B2, for which the Kd is 6.62 pM and 7.87 pM and 10.9 pM; the koff is 5.72e-05 s⁻¹ and 4.92e-05 s⁻¹ and 8.37e-05 s⁻¹; the association rate constant (kon) was 8.64e+06 M⁻¹ s⁻¹ and 6.25e+06 M⁻¹ s⁻¹ and 7.69e+06 M⁻¹ s⁻¹.
Turning to B3, the Kd is 11.3 pM and 12.4 pM and 11.5 pM; the “Ratio (variant antibody KD/burosumab KD)” value came to 2; the koff was 0.000145 s⁻¹ and 0.000134 s⁻¹; the on-rate (kon) was 1.3e+07 M⁻¹ s⁻¹ (2×) and 1.1e+07 M⁻¹ s⁻¹.
With B4, the Kd was 4.07 pM, the “Ratio (variant antibody KD/burosumab KD)” value turned out to be 5, the “SA (surface activity)” value is 93.9% and the koff turned out to be 6.25e-05 s⁻¹. The kon was 1.53e+07 M⁻¹ s⁻¹.
Take B5: the Kd is 13.3 pM and 14 pM and 18.3 pM; the koff is 0.000186 s⁻¹ and 0.000121 s⁻¹ and 0.000138 s⁻¹; the on-rate (kon) is 1.4e+07 M⁻¹ s⁻¹ and 8.64e+06 M⁻¹ s⁻¹ and 7.57e+06 M⁻¹ s⁻¹.
